Test results from article PMC3537504.

Assays:
[1] = target: MBP-αII-cardi+ (MBP fusion of repeats 18-21 of αII-spectrin with the 21-amino acid cardi+ insert) (rat); assay: far-Western, overlay or dot blot
[2] = target: GST-βII-spectrin-1-4 (GST fusion of repeats 1-4 of βII-spectrin) (rat); assay: SPR

GST-βII-spectrin-1-4 (GST fusion of repeats 1-4 of βII-spectrin) (domain or fragment)
binding relative to the αII-cardi− protein (blot overlay, densitometry) [1]: 0.5 fold

MBP-αII-cardi+ (MBP fusion of repeats 18-21 of αII-spectrin with the 21-amino acid cardi+ insert) (domain or fragment)
Kd [2]: 1090 pM | fold lower binding (response units at saturation) than MBP-αII-cardi− [2]: 2 fold

MBP-αII-cardi− (MBP fusion of repeats 18-21 of αII-spectrin without the cardi+ insert) (domain or fragment)
Kd [2]: 570 pM
